The source of these data is PMC8417825, “Light-Induced Dynamic Change of Phytochrome B and Cryptochrome 1 Stabilizes SINATs in Arabidopsis” (Frontiers in Plant Science, 2021).

B2: SINAT2-His (natural protein, Arabidopsis thaliana, UniProt Q9M2P4 1-308, looked up)
chain: MAPGGSALKEVMESNSTGMDYEVKTAKVEVNNNKPTKPGSAGIGKYGIHSNNGVYELLECPVCTNLMYPPIHQCPNGHTLCSNCKLRVQNTCPTCRYELGNIRCLALEKVAESLEVPCRYQNLGCHDIFPYYSKLKHEQHCRFRPYTCPYAGSECSVTGDIPTLVVHLKDDHKVDMHDGCTFNHRYVKSNPHEVENATWMLTVFNCFGRQFCLHFEAFQLGMAPVYMAFLRFMGDENEAKKFSYSLEVGAHGRKLTWQGIPRSIRDSHRKVRDSQDGLIIPRNLALYFSGGDRQELKLRVTGRIWKEE
notes: SINAT2 (SINA of Arabidopsis thaliana 2), At3g58040; Printed both as SINAT2-His (pull-down) and His-SINAT2 (ubiquitination assay); also called His-SINAT2

Assay in all cases: pull-down; in vitro pull-down: about 5 ug GST-tagged protein on glutathione resin, about 2 ug His-tagged protein added, 1 h at 4°C; washed with 1x PBS, 0.1% Triton X-100; anti-His blot
Common to all, as to settings: both partners purified

The target of the assay “SINAT2-His” is B2.
For the next assay, the target named is T1, CRY1-N-GST (Arabidopsis thaliana, UniProt Q43125 1-490).
T1 construct: cryptochrome 1 (CRY1), Arabidopsis thaliana, N-terminus, amino acids 1-490; Cloned into pGEX-4T-1; also called N-terminus of cryptochrome 1; source: E. coli BL21 (DE3) pLysS, purified (glutathione resin)

In the next assay the target is T2, phyB-C-GST (Arabidopsis thaliana, UniProt P14713 646-1172).
T2 construct: phytochrome B (phyB), Arabidopsis thaliana, C-terminus, amino acids 646-1,172; Cloned into pGEX-4T-1; also called C-terminus of phytochrome B; source: E. coli BL21 (DE3) pLysS, purified (glutathione resin)
T2 sequence (looked up): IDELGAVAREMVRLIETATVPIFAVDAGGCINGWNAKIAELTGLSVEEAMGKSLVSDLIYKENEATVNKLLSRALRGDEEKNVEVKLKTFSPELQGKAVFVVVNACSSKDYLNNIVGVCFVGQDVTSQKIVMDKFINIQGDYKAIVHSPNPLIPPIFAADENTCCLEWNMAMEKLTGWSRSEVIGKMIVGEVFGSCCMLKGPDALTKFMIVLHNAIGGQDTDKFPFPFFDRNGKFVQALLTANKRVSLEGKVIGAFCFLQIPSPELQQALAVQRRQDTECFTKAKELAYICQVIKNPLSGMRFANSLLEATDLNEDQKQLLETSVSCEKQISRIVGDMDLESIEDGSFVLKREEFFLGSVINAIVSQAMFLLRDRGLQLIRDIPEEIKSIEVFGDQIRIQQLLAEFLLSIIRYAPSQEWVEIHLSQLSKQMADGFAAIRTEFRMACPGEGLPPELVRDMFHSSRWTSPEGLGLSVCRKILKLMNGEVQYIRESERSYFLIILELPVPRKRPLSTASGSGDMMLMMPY

The target of a further assay is T3, phyB-N-GST (Arabidopsis thaliana, UniProt P14713 1-645).
T3 construct: phytochrome B (phyB), Arabidopsis thaliana, N-terminus, amino acids 1-645; also called N-terminus of phytochrome B; source: E. coli, purified (glutathione resin)
T3 sequence (looked up): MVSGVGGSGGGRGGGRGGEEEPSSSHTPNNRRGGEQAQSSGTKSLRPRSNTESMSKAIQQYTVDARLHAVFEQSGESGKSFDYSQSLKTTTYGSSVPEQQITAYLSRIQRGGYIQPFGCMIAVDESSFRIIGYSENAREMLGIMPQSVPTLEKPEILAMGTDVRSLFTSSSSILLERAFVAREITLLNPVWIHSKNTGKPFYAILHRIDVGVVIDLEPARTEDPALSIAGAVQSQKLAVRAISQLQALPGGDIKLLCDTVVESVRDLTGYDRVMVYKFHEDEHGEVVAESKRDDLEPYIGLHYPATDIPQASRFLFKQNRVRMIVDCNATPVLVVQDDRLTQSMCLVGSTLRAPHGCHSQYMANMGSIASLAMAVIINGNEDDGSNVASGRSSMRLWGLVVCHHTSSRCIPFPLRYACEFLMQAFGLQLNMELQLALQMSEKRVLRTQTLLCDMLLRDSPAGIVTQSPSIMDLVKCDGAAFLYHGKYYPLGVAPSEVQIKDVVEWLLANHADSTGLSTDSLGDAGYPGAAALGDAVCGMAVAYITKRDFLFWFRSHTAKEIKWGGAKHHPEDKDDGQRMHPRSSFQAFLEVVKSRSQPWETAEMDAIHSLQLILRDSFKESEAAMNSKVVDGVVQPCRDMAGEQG

T1 sequence (Q43125 1-490): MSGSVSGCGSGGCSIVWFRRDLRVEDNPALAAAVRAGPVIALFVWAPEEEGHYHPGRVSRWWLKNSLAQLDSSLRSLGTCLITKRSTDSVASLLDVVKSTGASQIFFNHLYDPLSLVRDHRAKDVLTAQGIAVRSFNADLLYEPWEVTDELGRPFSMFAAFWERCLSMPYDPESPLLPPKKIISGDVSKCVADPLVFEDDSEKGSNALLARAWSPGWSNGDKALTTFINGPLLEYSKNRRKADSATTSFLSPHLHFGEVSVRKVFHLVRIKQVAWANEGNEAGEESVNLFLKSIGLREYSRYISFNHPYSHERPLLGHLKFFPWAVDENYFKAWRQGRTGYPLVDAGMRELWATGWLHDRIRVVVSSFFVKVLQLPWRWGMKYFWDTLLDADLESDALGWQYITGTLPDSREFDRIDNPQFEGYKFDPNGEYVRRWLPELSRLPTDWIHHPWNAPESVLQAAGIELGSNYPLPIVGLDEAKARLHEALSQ

B1: CRY1-C-GST (domain or fragment, Arabidopsis thaliana, UniProt Q43125 491-681, looked up)
chain: MWQLEAASRAAIENGSEEGLGDSAEVEEAPIEFPRDITMEETEPTRLNPNRRYEDQMVPSITSSLIRPEEDEESSLNLRNSVGDSRAEVPRNMVNTNQAQQRRAEPASNQVTAMIPEFNIRIVAESTEDSTAESSSSGRRERSGGIVPEWSPGYSEQFPSEENGIGGGSTTSSYLQNHHEILNWRRLSQTG
notes: cryptochrome 1 (CRY1), Arabidopsis thaliana, C-terminus, amino acids 491-681; Cloned into pGEX-4T-1; also called C-terminus of cryptochrome 1; source: E. coli BL21 (DE3) pLysS, purified (glutathione resin)
B1: the binding result in the assay with SINAT2-His is given as “binds”.
As for B2, the binding result in the assay with CRY1-N-GST, with phyB-C-GST and with phyB-N-GST was “binds” in each case.
